Biological target: FEN1 (human, UniProt P39748 1-380)
Assay: fluorescence anisotropy; rotational correlation time decreases on binding; RPA reaction buffer with 50 mM KCl or FEN1 reaction buffer (full composition not in material); steady-state measurements at room temperature; proteins in excess over Kd (Kd stated only as low nM)
Conditions: protein: recombinant; tags: none left (His6-SUMO cleaved); label: 5' flap tip pCy3; nicked double flap: 3 strands, 5' flap 4 nt, 3' flap 1 nt

FEN1, sequence (P39748 whole entry): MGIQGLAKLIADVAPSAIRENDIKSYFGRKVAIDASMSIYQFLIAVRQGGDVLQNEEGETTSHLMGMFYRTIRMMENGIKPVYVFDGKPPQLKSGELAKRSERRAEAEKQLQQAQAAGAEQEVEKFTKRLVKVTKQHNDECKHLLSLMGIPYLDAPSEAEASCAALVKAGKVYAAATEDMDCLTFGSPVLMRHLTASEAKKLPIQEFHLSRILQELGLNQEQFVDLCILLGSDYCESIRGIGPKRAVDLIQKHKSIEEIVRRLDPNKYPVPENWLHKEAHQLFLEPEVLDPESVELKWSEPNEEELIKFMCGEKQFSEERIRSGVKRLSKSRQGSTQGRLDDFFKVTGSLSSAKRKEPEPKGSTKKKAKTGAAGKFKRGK

B1: DF-4,1 pCy3 (structured_DNA)
DNA 1: GATGACGAGCAGTCCTAACTGGAAATCTAGCTCTGTGGAG
DNA 2: CTCCACAGAGCTAGATTTCCC
DNA 3: TTTAAGTTAGGACTGCTCGTCATC
- binding result: binds
